According to patent publication US8691536B2, “Pectin lyase, pectin lyase polynucleotide, enzyme preparation, and method for producing single cells of plant tissue” (Bio-I Co., Ltd., priority 2009, dated 2014):

Legend:
[1] = Pectin lyase activity with HM pectin in McIlvaine buffer; type: biochemical
Procedure: In order to determine the kM value of the isolated and purified pectin lyase having maceration activity (SIGMA/P9561, derived from citrus fruit, degree of esterification <90%), a McIlvaine buffer (0.1 M citric acid, 0.2 M phosphoric acid) adjusted to pH 4.8 was used in measuring the enzyme activity when the final concentration of pectin was changed.
In addition, under conditions of 30° C., and within a pH range of 3.0-7.0, a McIlvaine buffer was used to measure the pectin lyase activity when the ionic strength of the various buffers was adjusted to 0.5 using KCl.
The pectin lyase activity was measured as described below. First, a McIlvaine buffer was used in the enzymatic reaction solution, and an HM pectin substrate (SIGMA/P9561, derived from citrus fruit, degree of esterification <90%) was used to obtain a final concentration of 3 mg/mL. The ionic strength of the enzymatic reaction solution was adjusted in advance to I=0.3 or 0.5, using KCl, and the enzyme solution was 50 μL, and the total amount of the enzymatic reaction solution was 500 μL. Measurements were carried out in the same manner as in [C] 2. (2) (Paloma Sanchez-Tones, Jaap Visser, and Jacques A. E. Benen, Biochem. J., 370, 331-337, Feb. 15, 2003), except that the temperature was 30° C.

[2] = Pectin lyase activity (absorbance at 235 nm, acetate buffer); type: biochemical
Procedure: An example of a method for measuring pectin lyase activity is to measure over time the absorbance of the maximum absorption wavelength at 235 nm by unsaturated polygalacturonid formed as a result the substrate being degraded by enzymatic action. In the alternative, other publicly-known methods may be used.
First, 50 μL of a solution of 2 wt. % of pectin (SIGMA/P9436, derived from citrus fruit) adjusted to pH 4.5 using NaOH or HCl, and 50 μL of enzyme solution were prepared. The 50 μL of wt. 2% pectin solution was mixed with 400 μL of 50 mM acetate buffer (pH 4.5) to prepare in advance a total of 450 μL, to which 50 μL of enzyme solution is to be added for a total of 500 μL as an enzymatic reaction solution to be used when measuring activity. In order to ensure uniform diffusion of the substrate in the reaction solution and to achieve stabilization, NaCl is added to obtain a final concentration of 0.1 M.
The enzyme solution and the enzymatic reaction solution without the enzyme solution are each incubated for 10 minutes at 25° C., after which 50 μL of the enzyme solution is mixed with 450 μL of the enzymatic reaction solution without the enzyme solution. An enzymatic reaction is then initiated, and measurements of absorbance at 235 nm are taken continuously for 10 minutes at 25° C. using a spectrometer. The amount of resulting unsaturated polygalacturonid is computed using a molecular absorbance coefficient of 5200 (M^−1cm^−1) (Paloma Sanchez-Torres, Jeap Visser, and Jacques A. E. Benen, Biochem. J., 370, 331-337, Feb. 15, 2003), and 1 unit (1 U) of pectin lyase activity was set at the amount of unsaturated polygalacturonid formed per 1 μmmol of unsaturated digalacturonid per minute.
In order to determine the optimal pH for pectin lyase activity of pectin lyase having maceration activity produced from the strain Aspergillus niger NBRC31125, the enzyme activity at various pH levels was measured using the above-described enzymatic reaction solution with modified pH (the enzymatic reaction solution described in [C] 2. (1) above).
(§1) It should be noted that a 20 mM phosphate buffer was used for the pH 6.0-7.5 enzymatic reaction solution, and a 50 mM Tris-HCl buffer was used for the pH 7.5-9.5 enzymatic reaction solution. In cases where a McIlvaine buffer was used in a pH range of 3-6, the pectin lyase activity was measured in the same manner. Moreover, in order to determine the pH stability, the pH of enzyme solutions containing purified enzymes was adjusted to 3.0, 4.0, 5.0, 6.0, 7.0, 8.0, 9.0 and 10.0, using either HCl or NaOH. After allowing these enzyme solutions to stand for 24 hours at 4° C., the pectin lyase activity was measured at 25° C. using a 50 mM acetate buffer (pH 4.5).

sweet potato discs [3] = test: Maceration activity, sweet potato disc decay at 45° C. in McIlvaine buffer; type: biochemical; settings: for specific maceration activity relative to N400 strain PLA: per 1 mg of protein, at optimal pH
Procedure: The maceration activity was measured as described below. First, sweet potato discs were prepared in the same manner as described above. Then, 50 μL of enzyme solution and 450 μL of buffer were placed in a test tube and mixed, forming a test solution held at a constant temperature of 45° C., then 1 of the above sweet potato discs were placed therein, and a reaction was initiated. A McIlvaine buffer was used as the buffer, and the ionic strength of the test solution (total of 500 μL) was adjusted in advance to I=0.3 or 0.5, using KCl. After the reaction started, stirring was carried out in the manner described above, and the degree of decay was visually observed. Three specimens each were prepared under the various conditions, and reactions of specimens under identical conditions were initiated simultaneously. The strength of the maceration activity under those conditions was expressed by the reciprocal of the time needed for any 2 of the sweet potato discs of the 3 specimens under identical conditions (total of 3) to almost uniformly decay.

[4] = Effects of metallic ions on pectin lyase activity; type: biochemical; settings: Ca^2+ 1 mM, acetate buffer pH 4.5, 25° C.
Procedure: Tests were conducted on the effects of metallic ions (Ca^2+, Ba^2+, Co^2+, Cu^2+, Mg^2+, Mn^2+, Zn^2+, and Fe^2+) of pectin lyase having maceration activity produced from the strain Aspergillus niger NBRC31125 on pectin lyase activity.
The test method involved the use of chlorides of various metals, and adjusting their final concentration in the enzymatic reaction solution to 1 mM, and calculating the percentage of change in activity depending on the presence or absence of metallic ions. The enzymatic reaction solution used a 50 mM acetate buffer and a pH of 4.5, and measurements were taken at 10-minute intervals at 25° C.

sweet potato discs [5] = test: Maceration activity, sweet potato disc decay at 30° C.; type: biochemical
Source text: Maceration activity can be measured, for example, by immersing a sweet potato disc in the enzyme solution, and measuring the time elapsed until the sweet potato disc uniformly decays in the enzyme solution as a result of insoluble pectin being degraded by enzymatic action. In the alternative, other publicly-known methods may be used.
A column 6 mm in diameter is removed from the center of a sweet potato using a cork borer. After using a knife to cut sweet potato discs about 0.3 mm thick, the discs are immersed for 60 seconds in 70% ethanol and then rinsed with distilled water. Into a test tube are placed 300 μL of enzyme solution with pH adjusted to 3.5 using HCl, and 200 μL of 50 mM acetate buffer (pH 3.5), and after these are mixed, a constant temperature is set at 30° C., and 3 of the above sweet potato discs are placed therein, and a reaction is initiated. Every 15 minutes after the reaction starts, agitation is carried out for 10 seconds using a test tube mixer, and the degree of decay is visually observed. The strength of the maceration activity is expressed by the reciprocal of the time needed for 2 of the 3 sweet potato discs to almost uniformly decay (Reference literature: Toshihiko Suganuma, Tetsuro Fukumoto, Youko Ikemizu, Katsuyuki Nakama, Shigeo Fujimoto, and Tomonori Nagahama, Bulletin of the Faculty of Agriculture, Kagoshima University, 37, 89-98, Mar. 16, 1987).
A column 6 mm in diameter was removed from the center of a sweet potato (about 500 g) using a cork borer. After using a knife to cut sweet potato discs about 0.3 mm thick, the discs were immersed for 60 seconds in 70% ethanol and then rinsed with distilled water. Into a test tube were placed 300 μL of purified enzyme solution (1.30 μg/mL) and 200 μL of a buffer, and after these were mixed, a constant temperature was set at 30° C., and 3 of the above sweet potato discs were placed therein, and a reaction was initiated.
The buffers were 50 mM acetate buffers with pH 3.0, 3.5, 4.0, 4.5, 5.0, and 6.0, a 50 mM HEPES buffer with pH 7.0, and 50 mM Tris-HCl buffers with pH 8.0 and 9.0. After starting the reaction, stirring was carried out for 10 seconds with a test tube mixer every 15 minutes, and the degree of decay was visually observed. The strength of the maceration activity was expressed by the reciprocal of the time needed for 2 of the 3 sweet potato discs to almost uniformly decay.
In order to evaluate the strength of the maceration activity of the pectin lyase of the present invention, in a Comparative Example, two commercially available enzyme preparations, Macerozyme R10 and Pectolyase Y-23 were dissolved in purified water so that the amount of protein in the respective enzyme solutions was 1.30 μg/ml, and these were subjected to the test described above.

[6] = pH stability of pectin lyase; type: physicochemical; settings: 24 hours at 4° C., activity then measured at pH 4.5, 25° C.
Procedure: as §1
The pH stability was evaluated using the formula (activity after standing/activity before standing)×100. As a result, the specific activity and the pH stability of pectin lyase at various pH levels are represented in the graph in FIG. 1, where 1.0 is pectin lyase at pH 4.5. The optimal pH for pectin lyase activity according to the present invention was 4.5 in the acetate buffer, and 4.8 in the McIlvaine buffer, and was thus found to be stable in a pH range of 3-6.

[7] = Test to determine the maximum temperature of pectin lyase / heat deactivation; type: physicochemical; settings: 15 minutes at 121° C.
[8] = McIlvaine buffer pH 4.8, Lineweaver-Burk plot
[9] = McIlvaine buffer, I=0.3, 45° C.

B1: pectin lyase of the present invention: Pectin lyase with maceration activity purified from Aspergillus niger NBRC31125; SEQ ID NO: 2; PLA mutant differing in 9 amino acids from N400 PLA (protein, listed as Aspergillus sp.)
chain: VGVSGSAEGFAEGVTGGGSATPVYPDTIDELVSYLGDDEARVIVLTKTFDFTDSEGTTTGTGCAPWGTASACQVAIDQDDWCENYEPDAPSVSVEYYNAGTLGITVTSNKSLIGEGSSGAIKGKGLRIVSGAENIIIQNIAVTDINAKYVWGGDAITLDDCDLVWIDHVTTARIGRQHYVLGTSADNRVSLTNNYIDGVSDYSATCDGYHYWAIYLDGDADLVTMKGNYIYHTSGRSPKVQDNTLLHAVNNYWYDISGHAFEIGEGGYVLAEGNVFQNVDTVLETYEGEAFTVPSTTAGEVCSTYLGRDCVINGFGSSGTFSEDSTSFLSDFEGKNIASASAYTSVASSVVANAGQGNL
Question: With B1 as the molecule, how does the “optimal pH for pectin lyase activity” value ([1]; 30° C., McIlvaine buffer pH 3.0-7.0, ionic strength 0.5 with KCl (FIG. 2)) read?
Answer: 4.8

Question: What about the “specific pectin lyase activity” value ([1]; 30° C., McIlvaine buffer, I=0.5, at optimal pH) of the same molecule?
Answer: 102 U/mg

Question: What about the Km value [1, 8] of the same molecule?
Answer: 5.4 mg/mL

Question: What about the Vmax value [1, 8] of the same molecule?
Answer: 140 U/mg

Question: And the “optimal pH of pectin lyase activity” value ([1]; McIlvaine buffer, I=0.3, 30° C.)?
Answer: 4.0

Question: And the “optimal pH of pectin lyase activity” value ([1]; McIlvaine buffer, I=0.5, 30° C.)?
Answer: 5.0

Question: And the pectin lyase activity ([2]; 50 mM acetate buffer pH 4.5, 25° C.)?
Answer: 54.7 U/mg

Question: And the “optimal pH for pectin lyase activity” value ([2]; McIlvaine buffer)?
Answer: 4.8

Question: And the “optimal pH for pectin lyase activity” value ([2]; acetate buffer)?
Answer: 4.5

Question: What about the “pectin lyase activity relative to crude enzyme solution” value ([2]; purified vs crude enzyme solution) of the same molecule?
Answer: 61 times

Question: And the “optimal pH of maceration activity” value (sweet potato discs [3]; [9])?
Answer: 4.0

Question: What about the “specific maceration activity per 1 mg” value (sweet potato discs [3]; [9]) of the same molecule?
Answer: 7400 h⁻¹ mg⁻¹

Question: And the “optimal pH of maceration activity” value (sweet potato discs [3]; McIlvaine buffer, I=0.5, 45° C.)?
Answer: 5.0

Question: What about the “ratio of the maceration activity to the pectin lyase activity” value (sweet potato discs [3]; maceration activity/pectin lyase activity of 1 mg of enzyme) of the same molecule?
Answer: 72.5

Question: And the “specific maceration activity relative to N400 strain PLA” value (sweet potato discs [3])?
Answer: about 3 times

Question: And the “specific maceration activity relative to N400 strain PLA” value (sweet potato discs [3]; listed as protein of the present invention)?
Answer: 3 times

Question: What about the “specific maceration activity relative to N400 strain PLA” value (sweet potato discs [3]; listed as this pectin lyase) of the same molecule?
Answer: about 3 times

Question: And the “Activity (%) vs. non-addition of ions” value [4]?
Answer: 120%

Question: And the “optimal pH for maceration activity” value (sweet potato discs [5]; 30° C., enzyme solution 1.30 μg/mL protein, buffers pH 3.0-9.0)?
Answer: ~3.5

Question: And the “maceration activity per 390 ng of protein” value (sweet potato discs [5]; at optimal pH, 30° C.)?
Answer: 0.15 h⁻¹

Question: And the “specific maceration activity at pH 3.0 relative to Macerozyme R10” value (sweet potato discs [5]; pH 3.0)?
Answer: 27.7 times

Question: And the “specific maceration activity at pH 3.0 relative to Pectolyase Y-23” value (sweet potato discs [5]; pH 3.0)?
Answer: 15.6 times

Question: What about the “maceration activity of enzyme solution used for pectin lysate” value (sweet potato discs [5]; pH 3.0, 0.5 mL enzyme solution (500 ng purified pectin lyase; 2% Macerozyme A; 0.16% Pectolyase Y-23)) of the same molecule?
Answer: 0.18 h⁻¹

Question: And the maceration activity (sweet potato discs [5]; pH 5.0 or lower)?
Answer: maceration activity was observed

Question: And the “decay of sweet potato discs” value (sweet potato discs [5]; pH 6.0, 7.0, 8.0, and 9.0)?
Answer: no decay occurred at all

Question: What about the “pH range in which stable” value [6] of the same molecule?
Answer: 3-6

Question: What about the “deactivation by boiling treatment” value [7] of the same molecule?
Answer: completely deactivated
